The nature of this series: Solubility/yield of SOCS3 recombinant proteins expressed and purified from E. coli. Format: physicochemical. The procedure: Thereafter, the recombinant protein gene-introduced E. coli was inoculated in 7 ml of LB medium, and then incubated at 37° C. overnight. The E. coli was inoculated in 700 ml of LB medium and incubated at 37° C. until OD600 reached 0.6. To this culture medium, 0.6 mM of isopropyl-β-D-thiogalactoside (IPTG, Gen Depot, USA) was added as a protein expression inducer, followed by further incubation at 37° C. for 3 hours. This culture medium was centrifuged at 4° C. and 8,000 rpm for 10 minutes and a supernatant was discarded to recover a cell pellet. The cell pellet thus recovered was suspended in a lysis buffer (100 mM NaH2PO4, 10 mM Tris-HCl, 8 M Urea, pH 8.0), and cells were disrupted by sonication (on/off time: 30 sec/30 sec, on time 2 hours, amplify 40%), and centrifuged at 15,000 rpm for 30 min to obtain a soluble fraction and an insoluble fraction.
After purification, the proteins were put in a SnakeSkin Dialysis Tubing bag (pore size: 10000 mw, Thermo scientific, USA) and then they were dialyzed by physiological buffer (DMEM). The strain lysate where protein expression was not induced, the strain lysate where protein expression was induced by addition of IPTG, and purified proteins were loaded on SDS-PAGE to analyze protein expression characteristics and expression levels (FIGS. 19 and 20).
Solubility of aMTD/SD-fused SOCS3 proteins was scored on a 5 point scale compared with that of SOCS3 proteins lacking the solubilization domain.

Experimental findings from US10385103B2, “Cell-permeable (ICP)-SOCS3 recombinant protein and uses thereof” (CELLIVERY THERAPEUTICS, INC., priority 2014, dated 2019) are described below.

Where two headings read alike, the source gives them in different places.

B1: HM165S3B: His-tagged recombinant protein of aMTD165, human SOCS3 and solubilization domain B; prototype improved cell-permeable SOCS3 (protein)
chain: MGSSHHHHHHSSGLVPRGSHMALAVPVALAIVPVTHSKFPAAGMETSRPLDTSLRLKTFSSKSEYQLVVNAVRKLQESGFYWSAVTGGEANLLLSAEPAGTFLIRDSSDQRHFFTLSVKTQSGTKNLRIQCEGGSFSLQSDPRSTQPVPRFDCVLKLVHHYMETPPPGAPSFPSPPTEPSSEVPEQPSAQPLPGSPPRRAYYIYSGGEKIPLVLSRPLSSNVATLQHLCRKTVNGHLDSYEKVTQLPGPIREFLDQYDAPLGSMAEQSDKDVKYYTLEEIQKHKDSKSTWVILHHKVYDLTKFLEEHPGGEEVLGEQAGGDATENFEDVGHSTDARELSKTYIIGELHPDDRSKIAKPSETL
modifications: Amino acid sequence of HM165S3B
Regarding B1, the solubility/yield result was “high solubility/yield”. Besides, where the note is “expressed and purified in E. coli”, the “solubility (tendency to precipitate)” value is “had little tendency to precipitate”. Besides, the solubility/yield entry (listed as SDB-fused iCP-SOCS3 recombinant protein) is “showed the highest solubility/yield”. For the same molecule, the solubility/yield entry (listed as aMTD165/SD-fused SOCS3 recombinant proteins) was “much higher than that of TAT/SD-fused SOCS3 or PolyR/SD-fused SOCS3 recombinant proteins”.
